# Reference: patent US20260275319A1, “ARCHAEAL PEPTIDE RECOMBINASE – A NOVEL PEPTIDE LIGATING ENZYME” (MAX-PLANCK-GESELLSCHAFT ZUR FÖRDERUNG DER WISSENSCHAFTEN …, priority 2019, published 2026)
# B1: M. jannaschii Adriase: Methanocaldococcus jannaschii Adriase (MJ_0548) with C-terminal His6-tag (protein)
# chain: SLIICYYGKNGAVIGGDRRQIFFRGSEENRKILEEKLYSGEIKSEEELYKLAEKLNIKIIIEDDREKVRKISDSVVCGEVRSLGIDAKRRRVYATKGKCAIVDILNDTVTNQTIKEGFGIVVLGNRFLKKKAEEELKRTAKLFPMMPIQQIEDAIKEIFEKLKWHPTVSKEYDIYSVNKYEKNFEEVIKKDIESLFKYREQLRKQLIDFGKVMSIVNKIVKNGEIGVIKDGKLHLYDDYIAIDKIDPNPKVFKVVDVEGNFKDGDIVVIENGDMKIKGTNEKVTTKYIIIHKGSHHHHHH
# modifications: C-terminal His6-tag; M. jannaschii Adriase with C-terminal His-tag
# Tested on: (15)KDPGA(10F) and PGA(10) peptides
# Experiment: M. jannaschii Adriase peptide ligation rates with fluorescent peptides (SDS-PAGE/UV)
# Type: biochemical
# Protocol: To test this assumption, the Adriase reaction was performed with (X1)KDPGA(X2) peptides bearing a C-terminal fluorophore (SEQ ID NOs: 370-371 and 418; see also Table 6) and unmodified PGA(X3) synthetic peptides (SEQ ID NOs: 373-375; see Table 7) as model substrates. The recombination reaction is expected to result in the formation of a (X1)KDPGA(X3) fusion peptide, releasing the respective C-terminal peptides PGA(X2)(SEQ ID NOs: 414) with the C-terminal fluorescent label. The latter can be visualized in order to track the progress of the reaction.
# For this purpose, ligations were performed and visualized as described above, except for the use of just 6 nM Adriase and the increasing concentrations of (15)KDPGA(10F) (SEQ ID NO: 418) and PGA(10)(SEQ ID NO: 374) peptides (2.5/5/10/20/40/80/160 µM of each peptide of the peptide pairs). The band intensity of the respectively fluorescently labeled PGA(10F)-peptide (see SEQ ID NO: 414), which is released by the ligation reaction was quantified using ImageJ v1.50i and subtracted from background signal in control reactions without PGA(10) peptide.
# To determine how the reaction is influenced by recognition motif characteristics, ligation rates for other substrates were determined in the same manner, except for the use of 20 μM of the indicated substrates (see also Tables 6 and 7) and varying concentrations of Adriase (6/30/150/750 nM). […] In combination with the above experiments (FIGS. 9A and B), they provide the means to design substrates for efficient Adriase-mediated ligations.
molecule,measurement,setting,value
B1,maximum rate,"6 nM Adriase, 85° C., equimolar substrates 2.5-160 μM, Michaelis-Menten model, single experiment",~ 1.4 ligations per enzyme and second
same,ligation of (X1)KDPGA(X2) and PGA(X3) peptides,"20 μM substrates, 6/30/150/750 nM Adriase, X1≥5 and X2=X3≥10",efficiently ligates
same,substrate concentration at half maximal reaction speed,"each substrate, 6 nM Adriase, 85° C., Michaelis-Menten model",23 µM
